Test results taken from patent US7375074B2, “Body weight gain inhibitor” (priority 2001, dated 2008).
No end group written: not given here. *: point of attachment. 125I = [125I]*

Experiments:
[1] = target: T1, human GPR8 (Homo sapiens, UniProt P48146); experiment: Receptor binding using [125I-Tyr10]-hGPR8L(1-23) and membrane fraction of GPR8 expressing CHO cells; conditions: membrane fraction of human GPR8 expressing cells
T1 construct: expressed in transfected cells; host or cells: CHO dhfr- cells, plasmid pAKKO-GPR8; membrane fraction
T1 sequence (P48146 whole entry): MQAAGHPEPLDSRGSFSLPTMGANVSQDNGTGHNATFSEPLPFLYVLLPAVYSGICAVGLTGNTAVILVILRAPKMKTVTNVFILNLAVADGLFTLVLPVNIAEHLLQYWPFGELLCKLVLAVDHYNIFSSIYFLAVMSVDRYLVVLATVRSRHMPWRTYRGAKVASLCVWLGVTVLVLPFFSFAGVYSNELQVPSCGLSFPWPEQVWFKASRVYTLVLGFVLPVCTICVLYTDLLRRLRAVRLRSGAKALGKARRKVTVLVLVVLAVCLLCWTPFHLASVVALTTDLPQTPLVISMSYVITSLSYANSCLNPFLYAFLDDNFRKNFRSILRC

[2] = target: T2, TGR26 (Rattus norvegicus, UniProt Q56UD9); experiment: Receptor binding using [125I-Tyr10]-hGPR8L(1-23) and membrane fraction of TGR26 expressing CHO cells; conditions: membrane fraction of TGR26 expressing CHO cells, 3 μg/ml
T2 construct: treated with restriction enzymes ClaI and SpeI, and the insert encoding TGR26 was excised; expressed in transfected cells; host or cells: CHO dhfr- cells, plasmid pAK-rGPR7; membrane fraction
T2 sequence (Q56UD9 1-329): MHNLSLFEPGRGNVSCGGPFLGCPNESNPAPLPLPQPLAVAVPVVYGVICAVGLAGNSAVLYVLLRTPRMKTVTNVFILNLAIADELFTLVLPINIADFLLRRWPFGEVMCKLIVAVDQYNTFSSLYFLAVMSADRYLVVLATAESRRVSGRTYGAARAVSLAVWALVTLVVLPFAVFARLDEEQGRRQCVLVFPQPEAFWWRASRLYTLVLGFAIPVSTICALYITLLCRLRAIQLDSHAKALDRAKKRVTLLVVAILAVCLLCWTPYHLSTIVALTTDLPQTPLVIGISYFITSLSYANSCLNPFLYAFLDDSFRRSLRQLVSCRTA
Protocol: Using [^125I-Tyr^10]-hGPR8L(1-23) prepared by the method described in Reference Example 42 and a cell membrane fraction prepared from TGR26 expressing cells as described in Example 6, a receptor binding assay was carried out as follows.
Cell membrane fraction prepared from TGR26 expressing cells was diluted to various concentration with assay buffer (25 mM Tris-HCl, 5 mM EDTA, 0.05% CHAPS (3-[(3-Cholamidopropyl) Dimethyl-Ammonio]-1-Propanesulfonate), 0.1% BSA, 0.5 mM PMSF, 1 μg/ml Pepstatin, 20 μg/ml Leupeptin, 4 μg/ml E-64, pH7.4), and 200 μl each of the diluent was dispensed into polypropilene test tube (Falcon 2053). In order to determine an amount of maximum binding, 2 μl of DMSO and 2 μl of 7 nM [^125I-Tyr^10]-hGPR8L(1-23) were added to the membrane fraction solution. […] After filtration, a radioactivity remaining on the filter was counted using γ-counter, and an amount of specific binding was estimated by subtracting an amount of non-specific binding from an amount of maximum binding. […]
A receptor binding activity of human- and porcine-homologue derivatives of GPR8 ligand peptide obtained in the reference examples was measured using a membrane fraction of TGR26 expressing CHO cells and [^125I-Tyr^10]-hGPR8L(1-23) by the method described in Reference Example 73. […]

[^125I-Tyr^10]-hGPR8L(1-23): hGPR8L(1-23) iodinated with 125I at Tyr10 by the lactoperoxidase method; radioligand (WYKHVASPRY(125I)HTVGRAAGLLMGL)
specific binding compared with [125I-Tyr2]-hGPR8L(1-23) [1]: twice as much

CSCC[C@H](NC(=O)[C@H](CC(C)C)NC(=O)[C@H](CC(C)C)NC(=O)CNC(=O)[C@H](C)NC(=O)[C@H](C)NC(=O)[C@H](CCCNC(=N)N)NC(=O)CNC(=O)[C@@H](NC(=O)[C@@H](NC(=O)[C@H](Cc1c[nH]cn1)NC(=O)[C@H](Cc1ccc(O)cc1)NC(=O)[C@H](CCCNC(=N)N)NC(=O)[C@@H]1CCCN1C(=O)[C@H](CO)NC(=O)[C@H](C)NC(=O)[C@@H](NC(=O)[C@H](Cc1c[nH]cn1)NC(=O)[C@H](CCCCN)NC(=O)[C@H](Cc1ccc(O)cc1)NC(=O)[C@@H](N)Cc1c[nH]c2ccccc12)[C@@H](C)O)[C@@H](C)O)C(C)C)C(=O)NCC(=O)N[C@@H](CC(C)C)C(=O)O [pGPR8L(1-23)]
IC50 [2]: 0.12 nM
